{"source": "paper PMC12608641", "origin": "cited, not measured here", "target": "p55 (Homo sapiens) (UniProt Q9UHN1)", "assay": "ultracentrifugation"}
{"substance": "p55 (from UniProt Q9UHN1)", "values": [{"measurement": "Kd", "value": "< 0.1", "unit": "nM"}]}
